B1: Grusopivirus A (nucleic acid)
chain: TGCCTGAGTAGGATTGTGAATTTAGGTATGAGAGGGTTAGCCAACCCATTCTGAACCATAATAGATACGTCAATCTGAATCCATCTAAATCTATCTCTTAGGCAGTGGTGCTGAAATATTGCAAGCTACTAGGGATAGACGTGATCTGATTCAAGAACCTATCTAATGTGGTGATGAGAAGGCTAGGTTTATCCATAGTAATCCCTTGTTCTGAACAGGCAATGCACATGCTCTAGTAGGATCTCGGGCTCTGCGATTGGCTCTAAACCGACCAATCCAGGTAGAGGCACTAAGTGTAGGACTTGCCAAAATGTATTACATGCTGGTACCGACTCACTAGTCTGGAAACTCCACACTGAAAGTGACTGGGGGGGGCCCCATCACATTTGTGCTACTGCTTGATAGAGTTGCGGCTGGTCAACTTGGATTGGTATAACCAGTTGAA
modifications: lipid formulation; Grusopivirus A
B2: Hepatovirus H2 (nucleic acid, listed as Hepatovirus sp.)
DNA: GTCATGTTTCTCTTTAAGAACACTCAATTTTGGCCATAAGTGAGACTCTTGTCGAACCTTTCATGTCAGGACCATGTTAGGGCCATTATCCTTTTCCCTGGGGCATTCTTCTTGCCCCTGTTTCATCTTTCTATCATCTTTCTTCCGGGCTCTCACAATGCCAATGGAGCGACCGATGCGCACGTCGGGGTTAACCCATGGATTAGCCATGGGCTGTAGCTGCTAAAAGTTGTGACTCCTGAAGCATACTATCAATGGTAGTAGATGTAACTGAAACACTGAAGCTTCTCTGATCTTGAAAGAAGGGTAGGCTACGGGTGAAACCCTTCAGGTTAATACTCATATTGAGAGATACCTTTGGTAGGTTAACGTTGGCGGATAATGTTGAGTTTAACGACAATAAACATTCAACGCCTGTGGGCGAACCTCACCAATTTCATGCTTTGAAGTGAATGTGCGTAGGGTCTCTATCGGAGATGCTATGTGGATGGTGCCCTCCCTGGAAACAGGTTGTAGGGGTACTCAGGTGCACTTAGGTTTCCACATTTTAAAGATTTTTC
B3: Yancheng osbecks grenadier anchovy picornavirus (nucleic acid)
DNA: CCTTAGGGTCTGGAATGCGTCCTTTCTGGGCACTTCCACAATCCTAAGGTAATTTTCAACGCCAGCGATGGAGCGATATCCAAAGAACCTTTATGTTTTAGTTCGTCTTGTATGTTTATAAAATATAAAATTGGGATTAGCAACCCACAAAAACATTTTTGTTATTCTCACCACATGAGAGGGTGGTTAAACCTCTTCGTAACCTATCTTGCTTGATTGGCTACTTGGGCTAGATTTAGGACAACCTCTTTAGCAAGCCTAAATTACTCCTCGTACTTGCACCTGGTAACAGGCGTACCTGGAGGTTACGGTGGCGCTAACTTGGACTTCTCGTTAATTCGTGCAAGTTTAAATGATGCCTATTTTGAATACAAGAAAGTATGATAGTAACTTAGGGCGTGAAGTTCCGCTTAACATAAGGCAGTATAAGTACTAAGATAAGGTGTAAGACCTACCTTAATAACTGTTGTCTTTTCTCATGGTCTTTCCGTGGGAGCCCTTGCTAGGGGTAAAGTTAAGTATTCTCAAATAATTTTTCATTCAAACTCTTTCTCTCTGTTTT
modifications: lipid formulation; source: /note="Description of Unknown: Yancheng osbecks grenadier anchovy picornavirus sequence"
B4: Turkey Gallivirus M176 (nucleic acid, listed as Gallivirus sp.)
DNA: CCACTCGCACTTCCTGGATAGTGCGTTAGATATGCCCGACATATCGCTTCCAGGACCAAAGCCCCCCTTTTCTCTTTCCCAACCAGCTTCGCCACTCAAGCTGTAATTCCATGTCCGGTCTTTCCGGCCTTAGTATCATGGAAATGTGGTCGTGCTCAAATGAAATTGAGTTGACATTGATCAATGAAAGTTGCACTGAACTTTGCTAAACTGGCTAGCGCCACCTGGTGTGTGCCGTTGGTCTCCTCACATGGTAACATGTGCCAACGGGCCCGAAAGGCTAGTGGGCAATTACCGCTCCAAGGGAGGGGTACCCACCCCGACCTGAACAGCGGTAATGAAGCTCACCTCCCAGGCTCTGACCCCGAGAAGTTTAGTTATTTAGTAGGTGTAATTAGTACTTGTGATTGGTCAATTTGATAGTAGTTTGAAACGTTATGGATGAATGAGTAGACCCCCTGAAGGTACCCCATTACATGGGATCTGATCAGGGCCACATTCTGCGTGTCTCCCCGCACTTGTGGTTAAAACCATGAAAGTTCATCCCAAACAATCTTTTCCTCTTCTTTTTCTTTTAGTGGTGACAACCTACTGGATTGGTGATTACCAATCTGTACTAGTGTTGTATTAAGACTTGTTGTGTGGAGAAAATGGACTCTTTCAAGAAGATTTTTG
modifications: lipid formulation
B5: Tremovirus B (nucleic acid)
DNA: TTCAAATGGCCCCTGGGTTGATACCCAGTGGTCATTTGGACACTTTGGTAAGGAGGTGTAATTATCCTTCCCATGTGGAACCTAGTGCTTAGGTTTACTTTATATGTTCTTTGTTTGTCCTTTGTACTTTCTATCGGGCAATCTTGTTGTTCAATACAATATGTATTTGAACTGCCTAAGATAAATTCAGTTTTCAACCAACCCCTCTCTTGGGGTTGTGTCTTTCTTTCTTTCTTATATCCTCTTAAGCTGACTTACTTGCTAATCCGACTCCTCGTCAACGGGAGGGTAAAGCAGTATCACTAGGGTATTGTGATGTAGGAGAAAAAGTAAGTAGAGATAGTGCATGTAACGAAAGTGACTTGGTACTTTAAACTCTCTTAATCCCAAAGTGTGGTATTGGTCATGTTGGAGTAGGCTACGGGTGAAACTCCTTCACATTTAGTAATGTGTTCACACGCTAACGCTACGGTAGATGACAGACTAGGTCTTATTCTCAACGTAGGGGGACGGGTGTATGTTCATGATTAGCCACATATTAAGGTTTTGAGGGGCTGAGTCATATAAGTATGTGCATTAATTTCTGGTACTGGTCCCTGGGGACTGGCCCTTTTCTAGGTTGATTTTAGTTTCCCCAATTTTTAAAAACTAATGAGATTTACGAC
modifications: Tremovirus B
B6: Grusopivirus B (nucleic acid)
chain: GCCATCCGTAGGTTCTGGTAAGGTTCCATCAACTGTTGGGGCGCTAGTTGCTATGACCGCATTCACGGACGGATGATTTATAGTATCACCCAATCCGGGCACAACTTCTTTAGCCACTTCTTCCACATTACTAAGGGCTCTCTTGCCGAGTTTCAACGTCTAGTCCACGACACGGACCTTCCTACTTTTCTATCTTCTTATTTTCTCTACTAAATTGGTATCTGGTACTGAAGATATGCGGATTGTGATTTTGTGCCTGTCTAAACTAACCCTATTCTAGGGTTAGGTGGGTACCATATACTAATGGTGAACAGGATTACCTATGTATCCATTAGTCCCTATGGATCTGGCGACCCACAAACTCATGTTCATAGAGAGGCTAAGCTGAGTGCTCGCCGAATAAGCATTGCTTCAGGTGCCGACTATTGTCTGGAAACCACTCAGTGATAGCTATAGGGGGGGGCCCCGTAGCATCTGCCTTACTGCCTGATAGGGTGGCGGCTGGTCCATGAACATGCAGTAACCAGTTGACTTGAC
modifications: lipid formulation; Grusopivirus B
B7: Hepatovirus D (nucleic acid)
DNA: CTTTGGATGCCCATAGTGCGGGGGTATAAATACCGCACTCCCTTTAGCTGTTCCGAGGGTATCGGAACCTATATGTTTGTTTTCTGTCTGTCTGTCAGCTTTATGTGTGCTCGTCCCCTTTAGGGCACTCATTTCAGCTTGCTTTCATTCTTTTCTTCCCCGGTTCTCACCTTACCGGAGGCACTGGCCGTTGCGCCCGGCGGGGTCAACCTAGTGATTAGCACTAGGCTGTAGGTGTCTAAAGTGGTGACATTAAGACTTGGTAACTGATTTCAGCACTGTTAACTGATGTTGGGGATGACTTGATTGATCTTCTGGAAGGGGTAGGCTACGGGTGAAACCCCTTATCTTAATACCACTATGTAGAGATAGATTCAGTAGGTTAAGGGCAGTGGATAAGGTTGAGTTCATTTTGGACAATAAACCTTCAACACTGGTGGACCCAATCTCACTGACCAGATGCTTTCTTGACTGATCCTTCAGAGGGGTGATTCTTCTGAATAGGTTGCCTTGACACTGATGCCTGAGACCCATTGGGTCGGGCCTTAAATCATGGAACTCCACTGGACTTTCATGGCCTAGCTTCTGCCTTAGACAGACTCTGGGGCCCCACGACCCTCTGGGCCCTTCGGGGTACTCAGGGGCATTTAGGTTTTTCCACAATTAAAAGAGTTA
modifications: Hepatovirus D
B8: Hepatovirus G1 (nucleic acid, listed as Hepatovirus sp.)
DNA: GCAAGGGGTGGTTTTAACCTTGCACGCGTTTACCGTGCGTTAACGGTTTTCCATGTTTGTATGTCTTGTTTGTATTATGTGTTTTGTAAATATTAATTCCTGCAGGTTCAGGGTTCTTTAATCATGTTGGGCTGTACCCACACTCAACTTTTGGCCATAAGTGAGTTTCTTAACGAACCTTTTAACACAGGATGTTATTAGGGCCCAATATTTTCCCTGAGGCCTTCTTTGGCCTCTATTTTTTCCCCTTTTCTATCTCCTTGTATTCCGGGCTCACGTGATGCCAATGGACTGACCCATGCGCCCGTGGGGGTTAACTACTGGAGTAGCCAGTAGCTGTAGGTGCTAAAAGTCACGTACGTGTAAGACTGGACGAGACCTCTCAGCTATAACTGAAAGTAGTAAGTATGTCTGAACTTCTTGAAGGGGTAGGCTACGGGTGAAACCCCTTAGGTTAATACTCATATTGAGAGATACCTCTGATAGGTGAAGGTTTCCGGTAGAGGTGAGTTTAACGACAAAGCCTCTCAACGGATGTGGGCCCACCTCATCAGCAAGATGCTTTCATACCCAATACCGTAGGGGCTGGGTTGTTGAGTTCAGTCCCAAGCGTCCCTCCCGCAAGGTTGTAGGGGTACTCAGGGGCATTTAGGTTTCCACAATTAAACAAATACA
B9: Human enterovirus 109 (nucleic acid, listed as Enterovirus sp.)
DNA: TTTAAAACAGCCTGGGGGTTGTTCCCACCCCCAGGGCCCACTGGGCGTTAGTACTCTGGTATCGCGGTACCTTAGTATGCCTGTTTTATGTCTCCTTTCCCCCGCAACTTTAGAAGTAATCAAGTTATGGCTCAACAGTCGCCACACCCCCAGTGTGGTTCCGAGCAAGCACTTCTGTTCCCCGGTTGCGTCTTATATGCTGTGTGAACGGCAGAAAGGGACAATATCGTTATCCGCTCAACTACTACGGGAAGCCTAGTACCACCATGGATTGACCTGAAAGTTGCGTTCAGCGCACCCCCAGCGCAGCTCAGGCCGATGAGGCTCCGAATACCCCACGGGCGACCGTGTCGGAGCCTGCGTTGGCGGCCTGCCCACGTTGCAAAACGTGGGACGCTCATTTCATGACATGGTGCGAAGAGCCTACTGTGCTAGTTGAGAGTCCTCCGGCCCCTGAATGTGGATAATCCTAACCACTGAACCTACGGGCGCAAACCAGCGTCTGGTAGGCCGTAACGCGCAAGTCGGTGGCGGAACCAACTACTTTGGGTGTCCGTGTTTCCTTTTATCTTTTTGAATGTTTATGGTGACAATTGTTGTGTACAGTTGTTACCATAGTTTGCATTCAGAAATAAACCTAACACTTTCCAATTATTTGTTACA

Tested on: HEK293 cells
Format: cell-based, human
Settings: circular RNA encoding Gluc with the listed IRES (UTR truncated to 675 nt) transfected into HEK293 cells; supernatant after 24 hours

Row | Molecule | Expression (luminescence from secreted Gluc protein)
1 | B1 | 1.09E+05
2 | B2 | 1.08E+05
3 | B3 | 1.57E+06
4 | B4 | 4.37E+05
5 | B5 | 1.31E+05
6 | B6 | 2.12E+05
7 | B7 | 1.47E+06
8 | B8 | 1.41E+05
9 | B9 | 4.92E+05
